# Data as given in patent US20030186868A1 (Regeneron, published 2003).
# Experiments:
# [1] = molecular target: T1, VEGFR-2/NP-1 co-receptor complex (cells co-expressing hVEGFR-2 and hNP-1) (human, UniProt P35968 20-1356; O14786 22-923); assay: 125I-VEGF165 affinity labeling of HUVEC, VEGFR-2 immunoprecipitation, 100 µM peptide (FIG. 10A)
# T1 construct: whole, on cells; All numbers printed for cells co-expressing both receptors are put on this molecule; also called R2 + NP1 Cells; VEGFR-2/NP-1 complex
# T1 sequence (P35968 20-1356, chain 1 of 2): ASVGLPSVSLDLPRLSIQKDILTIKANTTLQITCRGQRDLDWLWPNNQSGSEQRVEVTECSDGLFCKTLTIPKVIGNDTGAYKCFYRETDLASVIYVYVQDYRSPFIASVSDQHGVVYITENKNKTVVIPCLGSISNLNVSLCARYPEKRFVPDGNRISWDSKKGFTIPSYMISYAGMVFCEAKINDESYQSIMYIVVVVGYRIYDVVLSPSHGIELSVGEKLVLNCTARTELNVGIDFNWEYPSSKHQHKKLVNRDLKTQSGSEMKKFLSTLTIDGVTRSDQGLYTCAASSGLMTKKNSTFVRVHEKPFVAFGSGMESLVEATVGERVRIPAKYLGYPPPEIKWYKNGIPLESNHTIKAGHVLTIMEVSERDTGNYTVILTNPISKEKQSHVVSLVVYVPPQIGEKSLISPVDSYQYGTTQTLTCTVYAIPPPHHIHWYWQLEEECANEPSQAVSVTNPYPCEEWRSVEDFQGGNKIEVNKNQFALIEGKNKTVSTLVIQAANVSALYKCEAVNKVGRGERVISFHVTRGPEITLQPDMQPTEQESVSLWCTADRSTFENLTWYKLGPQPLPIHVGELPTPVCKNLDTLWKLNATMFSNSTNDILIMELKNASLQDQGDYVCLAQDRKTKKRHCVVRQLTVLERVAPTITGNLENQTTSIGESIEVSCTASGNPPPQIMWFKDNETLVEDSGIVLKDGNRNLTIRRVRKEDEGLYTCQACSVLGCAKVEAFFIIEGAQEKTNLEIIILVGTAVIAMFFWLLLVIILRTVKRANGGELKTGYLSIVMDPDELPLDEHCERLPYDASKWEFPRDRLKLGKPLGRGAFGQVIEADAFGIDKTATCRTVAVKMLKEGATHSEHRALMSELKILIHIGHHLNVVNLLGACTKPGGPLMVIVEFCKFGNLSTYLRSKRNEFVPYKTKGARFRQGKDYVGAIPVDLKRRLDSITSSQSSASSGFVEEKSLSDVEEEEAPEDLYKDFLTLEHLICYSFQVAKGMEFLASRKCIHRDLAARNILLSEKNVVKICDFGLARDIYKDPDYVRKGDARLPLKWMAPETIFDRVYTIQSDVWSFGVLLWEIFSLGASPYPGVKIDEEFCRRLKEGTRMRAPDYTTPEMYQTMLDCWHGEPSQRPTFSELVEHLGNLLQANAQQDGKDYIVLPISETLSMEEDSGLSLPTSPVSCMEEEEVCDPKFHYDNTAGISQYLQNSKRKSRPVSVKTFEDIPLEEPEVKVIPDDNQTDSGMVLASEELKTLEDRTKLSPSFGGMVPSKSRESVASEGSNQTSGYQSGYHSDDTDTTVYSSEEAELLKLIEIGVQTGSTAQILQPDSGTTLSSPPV
# T1 sequence (O14786 22-923, chain 2 of 2): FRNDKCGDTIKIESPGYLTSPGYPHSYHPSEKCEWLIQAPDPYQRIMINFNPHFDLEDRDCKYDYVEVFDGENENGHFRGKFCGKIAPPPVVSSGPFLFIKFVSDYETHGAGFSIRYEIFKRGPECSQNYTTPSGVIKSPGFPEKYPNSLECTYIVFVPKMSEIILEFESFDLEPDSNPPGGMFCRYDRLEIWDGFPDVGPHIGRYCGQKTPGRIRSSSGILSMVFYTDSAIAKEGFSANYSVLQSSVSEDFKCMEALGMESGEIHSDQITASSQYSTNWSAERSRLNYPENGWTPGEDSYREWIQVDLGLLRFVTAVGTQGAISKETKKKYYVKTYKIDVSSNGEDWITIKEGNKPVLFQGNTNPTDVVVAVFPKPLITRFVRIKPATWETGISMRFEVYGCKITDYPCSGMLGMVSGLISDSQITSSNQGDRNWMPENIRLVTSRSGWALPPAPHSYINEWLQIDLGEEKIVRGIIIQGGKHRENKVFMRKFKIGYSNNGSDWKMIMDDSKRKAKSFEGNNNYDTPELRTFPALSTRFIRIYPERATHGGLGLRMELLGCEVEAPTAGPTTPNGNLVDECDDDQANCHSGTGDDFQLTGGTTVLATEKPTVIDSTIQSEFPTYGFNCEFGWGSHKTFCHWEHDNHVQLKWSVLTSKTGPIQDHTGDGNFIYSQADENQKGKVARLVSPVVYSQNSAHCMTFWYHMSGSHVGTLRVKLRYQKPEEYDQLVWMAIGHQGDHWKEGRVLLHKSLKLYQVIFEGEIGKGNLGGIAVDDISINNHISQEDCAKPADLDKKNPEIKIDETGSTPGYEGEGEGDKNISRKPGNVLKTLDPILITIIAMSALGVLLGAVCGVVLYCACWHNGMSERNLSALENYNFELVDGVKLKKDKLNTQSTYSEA
# Method: (§1) The crosslinker is removed with a single, ice cold, large volume wash (15 ml DPBS, Gibco). The cells are then lysed using RIP buffer (20 mM Tris HCl, pH 7.4; 100 mM NaCl; 1 mM EDTA; 10 mM NaI; 0.5% IGEPAL CA-630; 0.5% Na-deoxycholate; 1% BSA; all from Sigma). The lysate is then transferred to 1.5 ml conical tubes and centrifuged at 13,000×g to pellet the cellular debris. […] The precipitation tube is then incubated overnight at 4° C. on a nurator. The following morning the beads are washed three times in TNEN buffer (20 mM Tris-HCl pH 7.4; 100 mM NaCl; and 0.5% IGEPAL CA-630, all from Sigma), and heated for two minutes at 100° C. in 25 μl of 1×sample loading dye (5′-3′). The samples are then centrifuged to separate the beads from the sample buffer, and 20 μl of the sample buffer is loaded onto 6% SDS-PAGE gels (Novex). The gels are run at 35 mA for approximately 70 minutes, and then equilibrated in a drying buffer (10% acetic acid; 10% methanol, 80% H₂O) for 15 minutes and dried on a gel drier. The dried gels are then exposed to a phosphor screen overnight and developed using a Storm system (Molecular Dynamics).
# (§2) Further amino terminal deletions were conducted.
# [2] = molecular target: T1, VEGFR-2/NP-1 co-receptor complex (cells …); assay: 125I-VEGF165 affinity labeling of HUVEC, VEGFR-2 immunoprecipitation, 100 µM peptide (FIG. 10B)
# Method: as §1, §2
# [3] = molecular target: T2, human vascular endothelial growth factor receptor-2 (hVEGFR-2) (human, UniProt P35968 20-1356); assay: 125I-VEGF165 competition, whole COS-1 cells
# T2 construct: whole, on cells; also called flk-1; FLK-1
# T2 sequence (P35968 20-1356): as the sequence (P35968 20-1356, chain 1 of 2) above
# Method: Cells are plated the day before experimentation at 200,000 cells per well in twelve well tissue culture plates (VWR) in 1 ml of growth medium specific for each cell type. On the day of experimentation, the cells were pre-equilibrated at 4° C. for 30 to 60 minutes in binding buffer (0.2% BSA, Sigma; 25 mM Hepes, Gibco; MEM, Gibco). […] The binding reaction is allowed to reach equilibrium for four hours at 4° C. with gentle agitation.
# Unbound ligand is then removed by quickly washing three times with 5 ml ice cold BSA-free binding buffer (MEM, Gibco, 25 mM Hepes, Gibco). Cells are lysed by the addition of 250 μl of RIPS Buffer (previously described), and the lysed cells are transferred to 12×75 mm test tubes and counted using a gamma counter. Generation of competition curves and IC₅₀ values are performed using the Prism software package (Graphpad Software Inc., San Diego, Calif.).
# [4] = molecular target: T1, VEGFR-2/NP-1 co-receptor complex (cells …); assay: 125I-VEGF165 competition on COS-1 cells and affinity labeling of HUVEC
binder,measurement,setting,value
RRREKQRPCDKPRR (also called PGV8-8N) [P6V8-8N],binding result,[1],binds
KGRGKRRREKQRPSDKPR [P6V8-3NCS-1C],binding result,[2],binds
RREKQRPCDKPRR [P6V8-9N],binding result,[3],no binding
same,binding result,[4],binds
